Measurements as given in PMC10922795.

Tests used:
Experiment in all cases: SPR
[1] = target: Igh^g2A10 mutant Fab J2/L114F with LC_Q106K (mouse)
[2] = target: Igh^g2A10 mutant Fab J1/L114F with LC_Q106R (mouse)
[3] = target: Igh^g2A10 mutant Fab J2/L114F (mouse)

Substance “recombinant PfCSP (from UniProt Q7K740 19-374) (natural protein)” has a fold increase in affinity over J2/L114F [1] of 65 fold, a fold increase in affinity over J1/L114F [2] of 18.2 fold and a fold increase in affinity over the J2 UCA [3] of 1.49 fold.
